Source: US20140134183A1 (CELL MEDICA SWITZERLAND, published 2014)
Substitutions are numbered along the chain they refer to. Where two headings read alike, the source gives them in different places.

Experiments:
Experiment in all cases: cell-based or functional assay
[1] = target: T1, recombinant human IL-1 beta (human, UniProt P01584 117-269)
[2] = target: T1, recombinant human IL-1 beta; remark: listed apart in the source
[3] = target: T1, recombinant human IL-1 beta; remark: listed apart in the source
[4] = target: T1, recombinant human IL-1 beta; remark: listed apart in the source

B1: DLX2586 (scFv)
scFv: EIVMTQSPSTLSASVGDRVIITCQASQSIDNWLSWYQQKPGKAPKLLIYRASTLASGVPSRFSGSGSGAEFTLTISSLQPDDFATYYCQNTGGGVSIAFGQGTKLTVLGGGGGSGGGGSGGGGSGGGGSEVQLVESGGGLVQPGGSLRLSCTVSGFSLSSYAMSWVRQAPGKGLEWIGIIYDSASTYYASWAKGRFTISKDTSKNTVYLQMNSLRAEDTAVYFCARERQIFSGDMDGWGQGTLVTVSS
[1]
  IC50 of IL-1 beta-induced IL-6 release from human dermal fibroblasts: 2 pM

B2: DLX2681 (scFv)
scFv: EIVMTQSPSTLSASVGDRVIITCRASQSIGNWLSWYQQKPGKAPKLLIYRASNLASGVPSRFSGSGSGAEFTLTISSLQPEDFATYYCQNTGGGINIAFGQGTKLTVLGGGGGSGGGGSGGGGSGGGGSEVQLVESGGGNVQPGGSLRLSCTASGFSLSNSAMAWVRQAPGKGLEWVGIIYDSASTYYASWAKGRFTISRDNSKNTVYLQMNSLRAEDTATYYCARERAIFSGDFALWGQGTLVTVSS
[2]
  IC50 of IL-1 beta-induced IL-6 release from human dermal fibroblasts: 0.6 pM

B3: DLX2480 (scFv)
scFv: EIVMTQSPSTLSASVGDRVIITCQASQSIDNWLSWYQQKPGKAPKLLIYRASTLASGVPSRFSGSGSGAEFTLTISSLQPDDFATYYCQNTGGGINIAFGQGTKLTVLGGGGGSGGGGSGGGGSGGGGSEVQLVESGGGLVQPGGSLRLSCTASGFSLSDAAMAWVRQAPGKGLEWVGIIYDSASTYYASWAKGRFTISRDTSKNTVYLQMNSLRAEDTAVYYCARERQIFSGDFVLWGQGTLVTVSS
[3]
  IC50 of IL-1 beta-induced IL-6 release from human dermal fibroblasts: 5 pM

B4: DLX2545 (scFv)
scFv: B3 scFv with I95V, N96S, D160S, V177I, V207L, Y223F, Q229N, F235M, L243T
[1]
  IC50 of IL-1 beta-induced IL-6 release from human dermal fibroblasts: 7 pM

B5: DLX2547 (scFv)
scFv: ADIVMTQSPSTLSASVGDRVTITCQASQSISSYLSWYQQKPGKAPKLLIYRASTLASGVPSRFSGSGSGAEFTLTISSLQPDDFATYYCQNTGGGINIAFGQGTKLEIKRGGGGSGGGGSGGGGSGGGGSEVQLVESGGGLVQPGGSLRLSCTASGFSLSSAAMAWVRQAPGKGLEWVGIIYDSASTYYASWAKGRFTISRDTSKNTVYLQMNSLRAEDTAVYYCARERAIFSGDFVLWGQGTLVTVSS
[1]
  IC50 of IL-1 beta-induced IL-6 release from human dermal fibroblasts: 30 pM

B6: DLX2693 (scFv)
scFv: B5 scFv with L141N, S161N, A162S, T203N, V222T, V237A
[2]
  IC50 of IL-1 beta-induced IL-6 release from human dermal fibroblasts: 12.5 pM

B7: anti-human IL-1 beta monoclonal IgG antibody MAB201 (antibody, from another filing, V domains shown)
VH: QVTLKESGPGILKPSQTLSLTCSFSGFSLSTSGMGVGWIRQPSGKGLEWLAHIWWDGDESYNPSLKTRLTISKNTSRNQVFLKITTVDTVDTATYFCARNRYDPPWFVDWGQGTLVTVSS
VL: DIQMTQTTSSLSASLGDRVTISCRASQDISNYLSWYQQKPDGTVKLLIYYTSKLHSGVPSRFSGSGSGTDYFLTISNLEQEDIATYFCLQGKMLPWTFGGGTKLEIK
[4]
  IC50 of IL-1 beta-induced IL-6 release from human dermal fibroblasts: 2 to 3 pM

B8: canakinumab IgG (Novartis, ILARIS) (antibody, V domains shown)
VH: QVQLVESGGGVVQPGRSLRLSCAASGFTFSVYGMNWVRQAPGKGLEWVAIIWYDGDNQYYADSVKGRFTISRDNSKNTLYLQMNGLRAEDTAVYYCARDLRTGPFDYWGQGTLVTVSS
VL: EIVLTQSPDFQSVTPKEKVTITCRASQSIGSSLHWYQQKPDQSPKLLIKYASQSFSGVPSRFSGSGSGTDFTLTINSLEAEDAAAYYCHQSSSLPFTFGPGTKVDIKR
[2]
  IC50 of IL-1 beta-induced IL-6 release from human dermal fibroblasts: 90 pM

B9: DLX2528 (scFv)
scFv: EIVMTQSPSTLSASVGDRVTITCQASQSIGNWLAWYQQKPGKAPKLLIYQASNLASGVPSRFSGSGSGTDFTLTISSLQPDDFATYYCQNAGGATTIAFGQGTKLTVLGGGGGSGGGGSGGGGSGGGGSEVQLVESGGGLVQPGGSLRLSCTASGFSLSSAAMAWVRQAPGKGLEWVGIIYDSASTYYASWAKGRFTISRDTSKNTVYLQMNSLRAEDTAVYYCARERAIFSGDFVLWGQGTLVTVSS
[1]
  IC50 of IL-1 beta-induced IL-6 release from human dermal fibroblasts: 8 pM
